Reference: publication PMC12810643

Target: endogenously expressed Gαi (human (endogenous in HEK293)) (UniProt P63096)
Test: linear dichroism

Sequence of UniProt P63096 (P63096 whole entry): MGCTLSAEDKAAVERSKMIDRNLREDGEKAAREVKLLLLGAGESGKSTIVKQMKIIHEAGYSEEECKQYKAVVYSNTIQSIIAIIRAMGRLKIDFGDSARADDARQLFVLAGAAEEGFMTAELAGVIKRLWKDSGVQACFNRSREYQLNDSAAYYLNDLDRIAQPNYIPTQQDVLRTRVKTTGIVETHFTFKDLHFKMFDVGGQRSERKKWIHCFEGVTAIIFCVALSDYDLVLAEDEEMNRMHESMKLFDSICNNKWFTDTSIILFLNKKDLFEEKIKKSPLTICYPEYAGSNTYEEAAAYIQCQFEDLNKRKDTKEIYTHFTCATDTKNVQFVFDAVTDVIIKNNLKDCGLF

Row | Substance | percent of the FLIP molecules bound
1 | KB1753-eGFP-HRas | 15%
2 | KB1753-cpmTurq2-HRas | 15%
